Assay results: patent US20240261333A1, “NOVEL TARGETS FOR ENHANCING ANTI-TUMOR IMMUNITY” (THE BROAD INSTITUTE, INC., priority 2021, published 2024)

B1: JUP (protein)
chain: MEVMNLMEQPIKVTEWQQTYTYDSGIHSGANTCVPSVSSKGIMEEDEACGRQYTLKKTTTYTQGVPPSQGDLEYQMSTTARAKRVREAMCPGVSGEDSSLLLATQVEGQATNLQRLAEPSQLLKSAIVHLINYQDDAELATRALPELTKLLNDEDPVVVTKAAMIVNQLSKKEASRRALMGSPQLVAAVVRTMQNTSDLDTARCTTSILHNLSHHREGLLAIFKSGGIPALVRMLSSPVESVLFYAITTLHNLLLYQEGAKMAVRLADGLQKMVPLLNKNNPKFLAITTDCLQLLAYGNQESKLIILANGGPQALVQIMRNYSYEKLLWTTSRVLKVLSVCPSNKPAIVEAGGMQALGKHLTSNSPRLVQNCLWTLRNLSDVATKQEGLESVLKILVNQLSVDDVNVLTCATGTLSNLTCNNSKNKTLVTQNSGVEALIHAILRAGDKDDITEPAVCALRHLTSRHPEAEMAQNSVRLNYGIPAIVKLLNQPNQWPLVKATIGLIRNLALCPANHAPLQEAAVIPRLVQLLVKAHQDAQRHVAAGTQQPYTDGVRMEEIVEGCTGALHILARDPMNRMEIFRLNTIPLFVQLLYSSVENIQRVAAGVLCELAQDKEAADAIDAEGASAPLMELLHSRNEGTATYAAAVLFRISEDKNPDYRKRVSVELTNSLFKHDPAAWEAAQSMIPINEPYGDDMDATYRPMYSSDVPLDPLEMHMDMDGDYPIDTYSDGLRPPYPTADHMLA
B2: P4HA2 (protein)
chain: EFFTSIGHMTDLIYAEKELVQSLKEYILVEEAKLSKIKSWANKMEALTSKSAADAEGYLAHPVNAYKLVKRLNTDWPALEDLVLQDSAAGFIANLSVQRQFFPTDEDEIGAAKALMRLQDTYRLDPGTISRGELPGTKYQAMLSVDDCFGMGRSAYNEGDYYHTVLWMEQVLKQLDAGEEATTTKSQVLDYLSYAVFQLGDLHRALELTRRLLSLDPSHERAGGNLRYFEQLLEEEREKTLTNQTEAELATPEGIYERPVDYLPERDVYESLCRGEGVKLTPRRQKRLFCRYHHGNRAPQLLIAPFKEEDEWDSPHIVRYYDVMSDEEIERIKEIAKPKLARATVRDPKTGVLTVASYRVSKSSWLEEDDDPVVARVNRRMQHITGLTVKTAELLQVANYGVGGQYEPHFDFSRNDERDTFKHLGTGNRVATFLNYMSDVEAGGATVFPDLGAAIWPKKGTAVFWYNLLRSGEGDYRTRHAACPVLVGCKWVSNKWFHERGQEFLRPCGSTEVD
B3: XPOT (protein)
chain: MDEQALLGLNPNADSDFRQRALAYFEQLKISPDAWQVCAEALAQRTYSDDHVKFFCFQVLEHQVKYKYSELTTVQQQLIRETLISWLQAQMLNPQPEKTFIRNKAAQVFALLFVTEYLTKWPKFFFDILSVVDLNPRGVDLYLRILMAIDSELVDRDVVHTSEEARRNTLIKDTMREQCIPNLVESWYQILQNYQFTNSEVTCQCLEVVGAYVSWIDLSLIANDRFINMLLGHMSIEVLREEACDCLFEVVNKGMDPVDKMKLVESLCQVLQSAGFFSIDQEEDVDFLARFSKLVNGMGQSLIVSWSKLIKNGDIKNAQEALQAIETKVALMLQLLIHEDDDISSNIIGFCYDYLHILKQLTVLSDQQKANVEAIMLAVMKKLTYDEEYNFENEGEDEAMFVEYRKQLKLLLDRLAQVSPELLLASVRRVFSSTLQNWQTTRFMEVEVAIRLLYMLAEALPVSHGAHFSGDVSKASALQDMMRTLVTSGVSSYQHTSVTLEFFETVVRYEKFFTVEPQHIPCVLMAFLDHRGLRHSSAKVRSRTAYLFSRFVKSLNKQMNPFIEDILNRIQDLLELSPPENGHQSLLSSDDQLFIYETAGVLIVNSEYPAERKQALMRNLLTPLMEKFKILLEKLMLAQDEERQASLADCLNHAVGFASRTSKAFSNKQTVKQCGCSEVYLDCLQTFLPALSCPLQKDILRSGVRTFLHRMIICLEEEVLPFIPSASEHMLKDCEAKDLQEFIPLINQITAKFKIQVSPFLQQMFMPLLHAIFEVLLRPAEENDQSAALEKQMLRRSYFAFLQTVTGSGMSEVIANQGAENVERVLVTVIQGAVEYPDPIAQKTCFIILSKLVELWGGKDGPVGFADFVYKHIVPACFLAPLKQTFDLADAQTVLALSECAVTLKTIHLKRGPECVQYLQQEYLPSLQVAPEIIQEFCQALQQPDAKVFKNYLKVFFQRAKP
B4: DDX3X (protein)
chain: SHVAVENALGLDQQFAGLDLNSSDNQSGGSTASKGRYIPPHLRNREATKGFYDKDSSGWSSSKDKDAYSSFGSRSDSRGKSSFFSDRGSGSRGRFDDRGRSDYDGIGSRGDRSGFGKFERGGNSRWCDKSDEDDWSKPLPPSERLEQELFSGGNTGINFEKYDDIPVEATGNNCPPHIESFSDVEMGEIIMGNIELTRYTRPTPVQKHAIPIIKEKRDLMACAQTGSGKTAAFLLPILSQIYSDGPGEALRAMKENGRYGRRKQYPISLVLAPTRELAVQIYEEARKFSYRSRVRPCVVYGGADIGQQIRDLERGCHLLVATPGRLVDMMERGKIGLDFCKYLVLDEADRMLDMGFEPQIRRIVEQDTMPPKGVRHTMMFSATFPKEIQMLARDFLDEYIFLAVGRVGSTSENITQKVVWVEESDKRSFLLDLLNATGKDSLTLVFVETKKGADSLEDFLYHEGYACTSIHGDRSQRDREEALHQFRSGKSPILVATAVAARGLDISNVKHVINFDLPSDIEEYVHRIGRTGRVGNLGLATSFFNERNINITKDLLDLLVEAKQEVPSWLENMAYEHHYKGSSRGRSKSSRFSGGFGARDYRQSSGASSSSFSSSRASSSRSGGGGHGSSRGFGGGGYGGFYNSDGYGGNYNSQGVDWWGN
B5: DDX17 (protein)
chain: MPTGFVAPILCVLLPSPTREAATVASATGDSASERESAAPAAAPTAEAPPPSVVTRPEPQALPSPAIRAPLPDLYPFGTMRGGGFGDRDRDRDRGGFGARGGGGLPPKKFGNPGERLRKKKWDLSELPKFEKNFYVEHPEVARLTPYEVDELRRKKEITVRGGDVCPKPVFAFHHANFPQYVMDVLMDQHFTEPTPIQCQGFPLALSGRDMVGIAQTGSGKTLAYLLPAIVHINHQPYLERGDGPICLVLAPTRELAQQVQQVADDYGKCSRLKSTCIYGGAPKGPQIRDLERGVEICIATPGRLIDFLESGKTNLRRCTYLVLDEADRMLDMGFEPQIRKIVDQIRPDRQTLMWSATWPKEVRQLAEDFLRDYTQINVGNLELSANHNILQIVDVCMESEKDHKLIQLMEEIMAEKENKTIIFVETKRRCDDLTRRMRRDGWPAMCIHGDKSQPERDWVLNEFRSGKAPILIATDVASRGLDVEDVKFVINYDYPNSSEDYVHRIGRTARSTNKGTAYTFFTPGNLKQARELIKVLEEANQAINPKLMQLVDHRGGGGGGGGRSRYRTTSSANNPNLMYQDECDRRLRGVKDGGRRDSASYRDRSETDRAGYANGSGYGSPNSAFGAQAGQYTYGQGTYGAAAYGTSSYTAQEYGAGTYGASSTTSTGRSSQSSSQQFSGIGRSGQQPQPLMSQQFAQPPGATNMIGYMGQTAYQYPPPPPPPPPSRK
B6: PLOD1 (protein)
chain: KGDAKPEDNLLVLTVATKETEGFRRFKRSAQFFNYKIQALGLGEDWNVEKGTSAGGGQKVRLLKKALEKHADKEDLVILFADSYDVLFASGPRELLKKFRQARSQVVFSAEELIYPDRRLETKYPVVSDGKRFLGSGGFIGYAPNLSKLVAEWEGQDSDSDQLFYTKIFLDPEKREQINITLDHRCRIFQNLDGALDEVVLKFEMGHVRARNLAYDTLPVLIHGNGPTKLQLNYLGNYIPRFWTFETGCTVCDEGLRSLKGIGDEALPTVLVGVFIEQPTPFVSLFFQRLLRLHYPQKHMRLFIHNHEQHHKAQVEEFLAQHGSEYQSVKLVGPEVRMANADARNMGADLCRQDRSCTYYFSVDADVALTEPNSLRLLIQQNKNVIAPLMTRHGRLWSNFWGALSADGYYARSEDYVDIVQGRRVGVWNVPYISNIYLIKGSALRGELQSSDLFHHSKLDPDMAFCANIRQQDVFMFLTNRHTLGHLLSLDSYRTTHLHNDLWEVFSNPEDWKEKYIHQNYTKALAGKLVETPCPDVYWFPIFTEVACDELVEEMEHFGQWSLGNNKDNRIQGGYENVPTIDIHMNQIGFEREWHKFLLEYIAPMTEKLYPGYYTRAQFDLAFVVRYKPDEQPSLMPHHDASTFTINIALNRVGVDYEGGGCRFLRYNCSIRAPRKGWTLMHPGRLTHYHEGLPTTRGTRYIAVSFVDP

What follows are molecules tested against T1, B3GNT2 (Homo sapiens, UniProt Q9NY97) (assay: Co-IP of FLAG-tagged B3GNT2 followed by mass spectrometry). Details: Co-IP followed by mass spectrometry of B3GNT2; C-term tag, FLAG pull-down.
T1 construct: The respective ORFs of candidate genes [CD274 (NM_014143), MCL1 (NM_021960), JUNB (NM_002229), and B3GNT2 (NM_006577)] were synthesized; expressed in transfected cells; host or cells: A375 melanoma cells (lentiviral ORF overexpression)
T1 sequence (Q9NY97 1-397): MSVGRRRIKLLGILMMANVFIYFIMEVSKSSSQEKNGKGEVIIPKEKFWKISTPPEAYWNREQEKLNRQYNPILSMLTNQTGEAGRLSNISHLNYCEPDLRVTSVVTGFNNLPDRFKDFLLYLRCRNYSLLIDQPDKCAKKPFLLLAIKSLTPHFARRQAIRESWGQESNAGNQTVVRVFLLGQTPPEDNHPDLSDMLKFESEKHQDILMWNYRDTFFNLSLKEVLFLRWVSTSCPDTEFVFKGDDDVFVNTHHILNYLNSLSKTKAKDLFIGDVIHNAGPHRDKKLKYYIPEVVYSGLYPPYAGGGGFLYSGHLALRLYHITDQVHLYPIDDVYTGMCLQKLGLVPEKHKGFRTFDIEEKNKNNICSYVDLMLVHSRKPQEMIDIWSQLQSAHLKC
Type: cell-based
Design: C-term IgG / C-term flag: unit not given here
In short: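 Co-purifying proteins were identified by fractionated nano-LC–MS/MS on an Orbitrap Elite, run data-dependent. Beforehand, lysates in 1% Triton X-100/HEPES buffer were incubated overnight at 4° C with anti-FLAG or […] and pulled down on Protein A/G magnetic beads for 4 h. Duplicate biological replicates.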

Going from B1 to B2, the C-term flag falls from 43 to 4.

Compared with B3, B4 is higher in C-term flag: 2 for the first, 23 for the second.

Going from B5 to B6, the C-term flag falls from 30 to 4.

Same assay, conditions: Co-IP followed by mass spectrometry of B3GNT2; C-term tag, IgG pull-down

Compared with B1, B2 is lower in “C-term IgG” value: 36 for the first, 0 for the second.

First: B3
Second: B4
The “C-term IgG” value of the first is lower: 0 for the first, 15 for the second.

First: B5
Second: B6
The “C-term IgG” value of the first is higher: 22 for the first, 0 for the second.

Same assay, conditions: Co-IP followed by mass spectrometry of B3GNT2; N-term tag, FLAG pull-down

Going from B1 to B2, the “N-term FLAG” value falls from 47 to 0.

First: B3
Second: B4
The “N-term FLAG” value of the first is lower: 2 for the first, 18 for the second.

First: B5
Second: B6
The “N-term FLAG” value of the first is higher: 23 for the first, 0 for the second.

Same assay, conditions: Co-IP followed by mass spectrometry of B3GNT2; N-term tag, IgG pull-down

Going from B1 to B2, the “N-term IgG” value falls from 39 to 0.

Compared with B3, B4 is higher in “N-term IgG” value: 0 for the first, 19 for the second.

First: B5
Second: B6
The “N-term IgG” value of the first is higher: 23 for the first, 0 for the second.
